Consider three molecules from patent publication US20030113787A1 (Takeda / Millennium, published 2003).

The target of one assay is T1, Bcl-10-CARD/AD (mouse, UniProt Q04207 364-549; O95999 1-104).
T1 sequence (looked up): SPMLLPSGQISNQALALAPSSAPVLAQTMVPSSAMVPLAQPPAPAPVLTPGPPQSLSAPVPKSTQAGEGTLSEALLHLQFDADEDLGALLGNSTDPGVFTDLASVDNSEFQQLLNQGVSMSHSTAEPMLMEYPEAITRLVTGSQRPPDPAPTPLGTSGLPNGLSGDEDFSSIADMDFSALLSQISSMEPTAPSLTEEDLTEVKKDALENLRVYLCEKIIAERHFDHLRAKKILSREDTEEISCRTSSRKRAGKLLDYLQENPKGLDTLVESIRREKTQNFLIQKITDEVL
Kind of assay: cell-based or functional assay.

The target of assay [1] is T2, Myc-CARD-11/CC (human, UniProt Q9BXL7 129-449).
T2 construct: NOT the whole entry: only the coiled-coil region stood in the assay
T2 sequence: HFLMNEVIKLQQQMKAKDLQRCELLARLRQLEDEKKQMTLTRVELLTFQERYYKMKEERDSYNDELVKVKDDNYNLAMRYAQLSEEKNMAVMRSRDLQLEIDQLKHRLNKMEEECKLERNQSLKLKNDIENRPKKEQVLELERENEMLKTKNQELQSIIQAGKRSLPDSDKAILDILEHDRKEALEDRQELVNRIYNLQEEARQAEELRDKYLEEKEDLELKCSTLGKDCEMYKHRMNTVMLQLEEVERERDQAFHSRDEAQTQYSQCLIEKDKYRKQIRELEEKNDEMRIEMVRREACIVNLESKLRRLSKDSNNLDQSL
Nature of the assay: co-localization by immunofluorescence in co-transfected cells.

Assay [2] concerns the target T3, Myc-tagged CARD-11 (full-length) (human, UniProt Q9BXL7 8-1154).
T3 construct: Used in the co-localization and Bcl-10 phosphorylation experiments; also called full-length CARD-11
T3 sequence: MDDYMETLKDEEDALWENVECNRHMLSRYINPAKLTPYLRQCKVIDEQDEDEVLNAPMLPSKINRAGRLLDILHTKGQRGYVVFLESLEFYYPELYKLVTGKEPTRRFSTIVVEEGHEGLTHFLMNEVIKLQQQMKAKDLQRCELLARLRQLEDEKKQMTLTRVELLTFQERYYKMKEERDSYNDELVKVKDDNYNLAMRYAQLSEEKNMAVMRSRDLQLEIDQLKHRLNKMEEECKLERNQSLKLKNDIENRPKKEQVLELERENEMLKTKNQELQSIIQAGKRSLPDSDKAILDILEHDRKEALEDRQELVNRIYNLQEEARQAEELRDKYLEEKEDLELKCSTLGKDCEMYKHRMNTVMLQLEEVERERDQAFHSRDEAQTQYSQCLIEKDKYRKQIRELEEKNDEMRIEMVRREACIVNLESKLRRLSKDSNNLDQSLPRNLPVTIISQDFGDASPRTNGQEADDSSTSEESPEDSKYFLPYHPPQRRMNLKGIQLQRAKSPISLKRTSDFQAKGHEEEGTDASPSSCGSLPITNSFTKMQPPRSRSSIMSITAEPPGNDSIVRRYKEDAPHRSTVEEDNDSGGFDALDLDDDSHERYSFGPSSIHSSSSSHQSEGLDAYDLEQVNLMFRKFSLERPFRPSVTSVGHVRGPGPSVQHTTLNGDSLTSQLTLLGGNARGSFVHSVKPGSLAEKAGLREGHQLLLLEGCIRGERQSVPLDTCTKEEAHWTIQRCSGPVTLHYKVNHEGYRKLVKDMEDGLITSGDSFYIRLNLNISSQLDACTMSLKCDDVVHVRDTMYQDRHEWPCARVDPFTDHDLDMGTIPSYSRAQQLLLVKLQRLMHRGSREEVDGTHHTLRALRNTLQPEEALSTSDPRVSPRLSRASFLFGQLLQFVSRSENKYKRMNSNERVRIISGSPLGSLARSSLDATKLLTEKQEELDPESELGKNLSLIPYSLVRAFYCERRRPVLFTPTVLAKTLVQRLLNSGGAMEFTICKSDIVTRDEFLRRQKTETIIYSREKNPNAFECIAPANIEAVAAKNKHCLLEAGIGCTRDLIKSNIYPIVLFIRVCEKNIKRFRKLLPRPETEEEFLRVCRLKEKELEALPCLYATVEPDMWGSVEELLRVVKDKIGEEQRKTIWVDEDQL
The description is as above.

The next assay has as its target T4, CARD-11/DCARD (human, UniProt Q9BXL7 134-1154).
T4 construct: also called CARD-11 truncation mutant lacking the N-terminal CARD
T4 sequence: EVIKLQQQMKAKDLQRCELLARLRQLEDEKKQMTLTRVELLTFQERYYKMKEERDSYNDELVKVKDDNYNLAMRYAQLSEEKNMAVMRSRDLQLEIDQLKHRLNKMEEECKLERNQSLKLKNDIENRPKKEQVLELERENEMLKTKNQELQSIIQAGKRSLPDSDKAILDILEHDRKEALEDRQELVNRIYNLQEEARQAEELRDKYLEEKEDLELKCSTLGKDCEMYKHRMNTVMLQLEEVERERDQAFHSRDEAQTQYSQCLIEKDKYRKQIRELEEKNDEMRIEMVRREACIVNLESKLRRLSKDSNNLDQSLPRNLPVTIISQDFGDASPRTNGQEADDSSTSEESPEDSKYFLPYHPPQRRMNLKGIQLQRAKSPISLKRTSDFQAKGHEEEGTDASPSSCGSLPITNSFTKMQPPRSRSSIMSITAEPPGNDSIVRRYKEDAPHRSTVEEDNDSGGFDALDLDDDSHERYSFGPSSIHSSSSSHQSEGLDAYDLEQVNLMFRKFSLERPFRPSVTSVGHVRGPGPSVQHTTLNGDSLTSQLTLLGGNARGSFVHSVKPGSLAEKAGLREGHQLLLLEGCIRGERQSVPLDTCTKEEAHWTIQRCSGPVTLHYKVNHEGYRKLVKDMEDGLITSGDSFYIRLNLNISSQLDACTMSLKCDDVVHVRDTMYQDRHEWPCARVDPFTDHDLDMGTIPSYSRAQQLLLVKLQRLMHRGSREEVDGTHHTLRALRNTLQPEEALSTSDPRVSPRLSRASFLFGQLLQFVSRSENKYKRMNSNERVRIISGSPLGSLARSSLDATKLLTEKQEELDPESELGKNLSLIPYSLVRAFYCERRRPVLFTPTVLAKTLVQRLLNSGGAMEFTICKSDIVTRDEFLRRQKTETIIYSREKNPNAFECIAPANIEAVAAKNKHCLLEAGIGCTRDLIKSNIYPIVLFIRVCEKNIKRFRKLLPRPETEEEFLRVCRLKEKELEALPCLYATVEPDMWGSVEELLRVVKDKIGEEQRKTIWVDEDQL
The description is as above.

For another assay, the target named is T5, Myc-tagged CARD-9 (human, UniProt Q9H257 1-536).
T5 construct: Expressed in 293T or Rat-1 cells; Species not restated; also called pCI-Card-9-myc
T5 sequence: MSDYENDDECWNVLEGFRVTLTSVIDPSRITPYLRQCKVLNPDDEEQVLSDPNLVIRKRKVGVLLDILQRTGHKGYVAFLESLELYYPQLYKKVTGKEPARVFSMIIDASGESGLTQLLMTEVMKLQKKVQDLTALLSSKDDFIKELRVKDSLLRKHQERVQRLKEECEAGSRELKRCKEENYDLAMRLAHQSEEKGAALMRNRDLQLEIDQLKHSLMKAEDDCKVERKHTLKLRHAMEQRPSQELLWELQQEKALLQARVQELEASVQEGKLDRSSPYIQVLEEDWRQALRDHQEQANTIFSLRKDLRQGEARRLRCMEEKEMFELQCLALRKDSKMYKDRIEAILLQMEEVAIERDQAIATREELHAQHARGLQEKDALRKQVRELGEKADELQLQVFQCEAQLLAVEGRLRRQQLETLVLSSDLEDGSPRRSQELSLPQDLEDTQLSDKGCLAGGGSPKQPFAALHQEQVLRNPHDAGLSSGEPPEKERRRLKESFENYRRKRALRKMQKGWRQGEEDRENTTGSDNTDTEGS
Nature of the assay: co-localization by immunofluorescence in co-transfected Rat-1 cells. An excerpt: To determine the cellular localization of CARD-9, and to confirm that CARD-9 associated intracellularly with Bcl-10 when the two proteins were co-expressed, Rat-1 cells were transfected with a Myc-tagged vector encoding full-length CARD-9, and with an HA-tagged vector encoding full-length Bcl-10. The expressed proteins were detected using a mixture of a monoclonal anti-Myc antibody and a polyclonal rabbit anti-HA antibody. Briefly, Rat-1 cells were transfected in glass chamber slides (BioCoat, Becton-Dickinson Labware) with pCI-Bcl-10-HA or pCI-Card-9-myc, alone or together, using FuGENE-6 (Roche Molecular Biochemicals) for 20 hours. Cells were fixed in 4% paraformaldehyde, permeabilized and blocked in buffer containing 0.4% Trition X-100, and sequentially incubated with primary and secondary antibodies. Antibodies were rabbit anti-HA polyclonal Y-11 (Santa Cruz Biotechnology), mouse anti-myc monoclonal 9E10 (Oncogene Research Products), Alexa-488 Goat anti-mouse IgG (Molecular Probes) and Texas-Red Goat anti-rabbit IgG (Jackson Immunoresearch Laboratories). No cross-reactivity was observed between any of the antibodies. Nuclei were stained with Hoechst 33258. […]

For assay [3], the target named is T2, Myc-CARD-11/CC. Kind of assay: co-immunoprecipitation from transfected 293T cells (anti-Flag IP, anti-Myc blot). The procedure:
The interaction between CARD-11 and Bcl-10 was next examined in cells by overexpressing CARD-11 is cells and performing co-immunoprecipitation assays. These assays were performed as follows. Plasmids expressing CARD-11 with C-terminal Myc epitopes were constructed using pCMV-Tag 5A (Stratagene Corp., La Jolla, Calif.). Constructs encoding epitope-tagged Bcl-10 were described previously (Srinivasula et al., […] J. Biol. Chem. 274:17946). 293T cells transfected with the plasmids were lysed in 50 mM Tris, pH 8.0, 120 mM NaCl, 1 mM EDTA, 0.5% Nonidet P-40 buffer and incubated with anti-Flag-M2 monoclonal antibody (Sigma Co.). The immune complexes were precipitated with protein G-Sepharose (Amersham Pharmacia Bio), washed extensively, and then subjected to SDS-polyacrylamide gel electrophoresis and immunoblotted with polyclonal anti-Myc antibodies (Santa Cruz Biotechnology, Inc.).

B1: CARD10-CARD/BD (other, yeast)
chain: MKLLSSIEQACDICRLKKLKCSKEKPKCAKCLKNNWECRYSPKTKRSPLTRAHLTEVESRLERLEQLFLLIFPREDLDMILKMDSLQDIKALLTGLFVQDNVNKDAVTDRLASVETDMPLTLRQHRISATSSSEESSNKGQRQLTVSMPGRAEAGEAEEEAGAGSGSEAEEDALWERIEGVRHRLARALNPAKLTPYLRQCRVIDEQDEEEVLSTYRFPCRVNRTGRLMDILRCRGKRGYEAFLEALEFYYPEHFTLLTGQEPAQRCSMILDEEGPEGLTQFLMT
Consider B1, for which, in the assay with Bcl-10-CARD/AD, the “relative luciferase activity (mammalian two-hybrid reporter)” value stood at 340 fold.

B2: HA-tagged Bcl-10 (other, UniProt O95999 1-233, looked up, not shown: small tags and cut ends)
chain: MEPTAPSLTEEDLTEVKKDALENLRVYLCEKIIAERHFDHLRAKKILSREDTEEISCRTSSRKRAGKLLDYLQENPKGLDTLVESIRREKTQNFLIQKITDEVLKLRNIKLEHLKGLKCSSCEPFPDGATNNLSRSNSDESNFSEKLRASTVMYHPEGESSTTPFFSTNSSLNLPVLEVGRTENTIFSSTTLPRPGDPGAPPLPPDLQLEEEGTCANSSEMFLPLRSRTVSRQ
notes: Expressed in Rat-1 or other transfected cells; also called pCI-Bcl-10-HA; HA-Bcl-10
Consider B2, for which the binding result was “no binding” with Myc-CARD-11/CC [1], “binds” in assay [2], “no binding” with CARD-11/DCARD and “binds” with Myc-tagged CARD-9.

B3: Flag-tagged Bcl-10 (other, UniProt O95999 1-233, looked up, not shown: small tags and cut ends)
chain: MEPTAPSLTEEDLTEVKKDALENLRVYLCEKIIAERHFDHLRAKKILSREDTEEISCRTSSRKRAGKLLDYLQENPKGLDTLVESIRREKTQNFLIQKITDEVLKLRNIKLEHLKGLKCSSCEPFPDGATNNLSRSNSDESNFSEKLRASTVMYHPEGESSTTPFFSTNSSLNLPVLEVGRTENTIFSSTTLPRPGDPGAPPLPPDLQLEEEGTCANSSEMFLPLRSRTVSRQ
notes: Expressed in 293T cells; also called Flag-Bcl-10
Consider B3, for which the binding result in the assay with Myc-CARD-11/CC [3] is recorded as “no binding”.
